Among the data in publication PMC5221731 are stoichiometry N values, retold here.

In this assay the target is N-terminally hexahistidine-tagged wildtype Chinese hamster BiP, unmodified (non-AMPylated) (Chinese hamster) (UniProt G3I8R9). Nature of the assay: native gel or EMSA. (In general: In EMSA bound probe runs differently from free probe, usually more slowly.)

As usually defined, the stoichiometry N is a count of units in the complex or per binding partner. “N-terminally hexahistidine-tagged wildtype Chinese hamster BiP, unmodified (non-AMPylated) (from UniProt G3I8R9 19-654) (natural protein)” had a stoichiometry N of 2.
